{"source": "paper PMC11693862", "about": "(Acta Biochimica et Biophysica Sinica, 2024)", "experiment_in_all_cases": "crystal structure", "key": {"[1]": {"molecular_target": "SARS-CoV-2 M pro G15S (SARS-CoV-2)"}, "[2]": {"molecular_target": "SARS-CoV-2 M pro K90R (SARS-CoV-2)"}, "[3]": {"molecular_target": "SARS-CoV-2 M pro M49I (SARS-CoV-2)"}, "[4]": {"molecular_target": "SARS-CoV-2 M pro P132H (SARS-CoV-2)"}, "[5]": {"molecular_target": "SARS-CoV-2 M pro S46F (SARS-CoV-2)"}, "[6]": {"molecular_target": "SARS-CoV-2 M pro V186F (SARS-CoV-2)"}, "[7]": {"molecular_target": "SARS-CoV-2 M pro Y54C (SARS-CoV-2)"}}, "data": [{"substance": "SARS-CoV-2 M pro G15S (enzyme)", "values": [{"measurement": "stoichiometry N", "setting": "[1]", "result": 2}]}, {"substance": "SARS-CoV-2 M pro K90R (enzyme)", "values": [{"measurement": "stoichiometry N", "setting": "[2]", "result": 2}]}, {"substance": "SARS-CoV-2 M pro M49I (enzyme)", "values": [{"measurement": "stoichiometry N", "setting": "[3]", "result": 2}]}, {"substance": "SARS-CoV-2 M pro P132H (enzyme)", "values": [{"measurement": "stoichiometry N", "setting": "[4]", "result": 2}]}, {"substance": "SARS-CoV-2 M pro S46F (enzyme)", "values": [{"measurement": "stoichiometry N", "setting": "[5]", "result": 2}]}, {"substance": "SARS-CoV-2 M pro V186F (enzyme)", "values": [{"measurement": "stoichiometry N", "setting": "[6]", "result": 2}]}, {"substance": "SARS-CoV-2 M pro Y54C (enzyme)", "values": [{"measurement": "stoichiometry N", "setting": "[7]", "result": 2}]}]}
